Assays:
Experiment in all cases: cell-based or functional assay
[1] = target: RHPA4259.7 Env pseudovirus (HIV-1)
[2] = target: ZM197M.PB7 Env pseudovirus (HIV-1)
[3] = target: Ce1176_A3 Env pseudovirus (HIV-1)
[4] = target: CNE53 Env pseudovirus (HIV-1)
[5] = target: Du156.12 Env pseudovirus (HIV-1)
[6] = target: PVO.4 Env pseudovirus (HIV-1)
[7] = target: TRJO4551.58 Env pseudovirus (HIV-1)
[8] = target: SC05_8C11_2344 Env pseudovirus (HIV-1)
[9] = target: Q461.e2 Env pseudovirus (HIV-1)
[10] = target: 246F C1G Env pseudovirus (HIV-1)
[11] = target: 1054_07_TC4_1499 Env pseudovirus (HIV-1)
[12] = target: CNE52 Env pseudovirus (HIV-1)
[13] = target: Ce703010054_2A2 Env pseudovirus (HIV-1)
[14] = target: CNE17 Env pseudovirus (HIV-1)
[15] = target: MuLV envelope (negative control pseudovirus) (MuLV)
[16] = target: WEAU_d15_410_787 Env pseudovirus (HIV-1)
[17] = target: Ce0682_E4 Env pseudovirus (HIV-1)
[18] = target: Q769.d22 Env pseudovirus (HIV-1)
[19] = target: THRO4156.18 Env pseudovirus (HIV-1)
[20] = target: Ce0393_C3 Env pseudovirus (HIV-1)
[21] = target: MS208.A1 Env pseudovirus (HIV-1)
[22] = target: 1006_11_C3_1601 Env pseudovirus (HIV-1)
[23] = target: CNE21 Env pseudovirus (HIV-1)
[24] = target: HIV-16845-2.22 Env pseudovirus (HIV-1)
[25] = target: CAP210.2.00.E8 Env pseudovirus (HIV-1)
[26] = target: 9004SS_A3_4 Env pseudovirus (HIV-1)
[27] = target: ZM53M.PB12 Env pseudovirus (HIV-1)
[28] = target: HIV-16055-2.3 Env pseudovirus (HIV-1)
[29] = target: Ce2060_G9 Env pseudovirus (HIV-1)
[30] = target: HIV-001428-2.42 Env pseudovirus (HIV-1)
[31] = target: T257-31 Env pseudovirus (HIV-1)
[32] = target: 1012_11_TC21_3257 Env pseudovirus (HIV-1)
[33] = target: ZM249M.PL1 Env pseudovirus (HIV-1)
[34] = target: Q259.d2.17 Env pseudovirus (HIV-1)
[35] = target: ZM109F.PB4 Env pseudovirus (HIV-1)
[36] = target: 1056_10_TA11_1826 Env pseudovirus (HIV-1)

B1: N49P22 (antibody, V domains shown)
V domain 1: HIQLLQSGPQVKKSGDTVRISCETSGYNFVDSRIHWVRQTPEKRLRWMGWINPLQGGVNYAPEFQGRIRMTRDTFIDTVYVDLSGLTPADTAYYYCARGIDGKSYPFHFWGHGTRVTVFS
V domain 2: RFALTQPASVSGSPGQTITITCAGGSVSWFHFPPGKTPRLIIYESSKRPSGVSPRFSGSQSGSTASLIISGLQSDDEGTYFCSILEFFGRGTLVTVLS
Work on B1 yielded an IC50 [1] of 0.637 µg/mL, an IC80 [1] of 5.6 µg/mL and an MPI [1] of 92. It also gave an IC50 [2] of 2.58 µg/mL, an IC80 [2] of 25.1 µg/mL and an MPI [2] of 84. The IC50 [3] was > 50 µg/mL, the IC80 [3] was > 50 µg/mL and the MPI [3] was 23. It also gave an IC50 [4] of 0.779 µg/mL, an IC80 [4] of 5.11 µg/mL and an MPI [4] of 93. For the same binder, the IC50 [5] was > 50 µg/mL, the IC80 [5] was > 50 µg/mL and the MPI [5] was 4. The IC50 [6] was 0.433 µg/mL, the IC80 [6] was 1.49 µg/mL and the MPI [6] was 100. For the same binder, the IC50 [7] was > 50 µg/mL, the IC80 [7] was > 50 µg/mL and the MPI [7] was 28. It also gave an IC50 [8] of 0.251 µg/mL, an IC80 [8] of 2.16 µg/mL and an MPI [8] of 97. For the same binder, the IC50 [9] was 11.2 µg/mL, the IC80 [9] was > 50 µg/mL and the MPI [9] was 66. For the same binder, the IC50 [10] was > 50 µg/mL, the IC80 [10] was > 50 µg/mL and the MPI [10] was 10. The IC50 [11] was 0.654 µg/mL, the IC80 [11] was 2.89 µg/mL and the MPI [11] was 100. It also gave an IC50 [12] of 1.7 µg/mL, an IC80 [12] of 10 µg/mL and an MPI [12] of 91. For the same binder, the IC50 [13] was > 50 µg/mL, the IC80 [13] was > 50 µg/mL and the MPI [13] was 0. The IC50 [14] was 46.3 µg/mL, the IC80 [14] was > 50 µg/mL and the MPI [14] was 53. For the same binder, the IC50 [15] was > 50 µg/mL, the IC80 [15] was > 50 µg/mL and the MPI [15] was 8. The IC50 [16] was 1.54 µg/mL, the IC80 [16] was > 50 µg/mL and the MPI [16] was 76. The IC50 [17] was 1.13 µg/mL, the IC80 [17] was > 50 µg/mL and the MPI [17] was 75. For the same binder, the IC50 [18] was 0.043 µg/mL, the IC80 [18] was 0.259 µg/mL and the MPI [18] was 100. For the same binder, the IC50 [19] was > 50 µg/mL, the IC80 [19] was > 50 µg/mL and the MPI [19] was 32. The IC50 [20] was > 50 µg/mL, the IC80 [20] was > 50 µg/mL and the MPI [20] was 12. For the same binder, the IC50 [21] was > 50 µg/mL, the IC80 [21] was > 50 µg/mL and the MPI [21] was 17. The IC50 [22] was 0.898 µg/mL, the IC80 [22] was 14.7 µg/mL and the MPI [22] was 83. For the same binder, the IC50 [23] was > 50 µg/mL, the IC80 [23] was > 50 µg/mL and the MPI [23] was 0. It also gave an IC50 [24] of 4.6 µg/mL, an IC80 [24] of 41.9 µg/mL and an MPI [24] of 87. The IC50 [25] was > 50 µg/mL, the IC80 [25] was > 50 µg/mL and the MPI [25] was 6. For the same binder, the IC50 [26] was > 50 µg/mL, the IC80 [26] was > 50 µg/mL and the MPI [26] was 42. The IC50 [27] was 1.2 µg/mL, the IC80 [27] was 11.8 µg/mL and the MPI [27] was 91. The IC50 [28] was 4.66 µg/mL, the IC80 [28] was 39.7 µg/mL and the MPI [28] was 83. The IC50 [29] was > 50 µg/mL, the IC80 [29] was > 50 µg/mL and the MPI [29] was 19. For the same binder, the IC50 [30] was 0.73 µg/mL, the IC80 [30] was 7.1 µg/mL and the MPI [30] was 91. The IC50 [31] was > 50 µg/mL, the IC80 [31] was > 50 µg/mL and the MPI [31] was 43. The IC50 [32] was 15.7 µg/mL, the IC80 [32] was > 50 µg/mL and the MPI [32] was 53. For the same binder, the IC50 [33] was > 50 µg/mL, the IC80 [33] was > 50 µg/mL and the MPI [33] was 0. The IC50 [34] was > 50 µg/mL, the IC80 [34] was > 50 µg/mL and the MPI [34] was 15. The IC50 [35] was > 50 µg/mL, the IC80 [35] was > 50 µg/mL and the MPI [35] was 1. The IC50 [36] was 2.99 µg/mL, the IC80 [36] was > 50 µg/mL and the MPI [36] was 69.

From patent US20240117018A1
